In the nanobody polyreactivity screen of Harvey et al. (2022):

Assay: yeast display, Sf9 membrane polyspecificity reagent, FACS + sequencing; frameworks hold sequencing errors
Summary of the method: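 Polyreactivity labels are assigned by the sorting gate from which each nanobody was recovered. The gates were low and high (top ~1%), set on anti-HA fluorescence for expression and streptavidin fluorescence for reagent binding. Before sorting, galactose-induced (36–48 hours) yeast display cells were stained for 1 hour at 4 °C with 10% biotinylated, detergent-solubilized Sf9 membrane reagent.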

With “QVQLVESGGGLVQAGGSLRLSSAASGTFWWYAMGWYRQAPGQEMELVASINRGGSTYYADSVKGRFTISRDNAKNTVYLQMNSLKPEDTAVYYCAAQVDRKYRWFNSWGQGTQVTVSS” the “polyreactivity (PSR sort gate)” value was “high polyreactivity”.

For “HVHLVESGGGLVQAGGSLPLSCAASGFIISHYTMGWYRQAPGKERELVAGISWSGGNTYYADFVKGRFTISRDHAKNTVYLQMNSLKPEDTAVYYCNADWIGVPLAYDYWGQGTQVTVSS”, the “polyreactivity (PSR sort gate)” value was “low polyreactivity”.

In the case of “QVQLVESGGGLVQAGGSLRLSCAASGIIFGSYAMGWYRQAPGKERELVAGISKIGGRTYYADSVKGRFTISRDNAKNTVYLQMNSLKPEDTAVYYCNKVRTRERTDYDYWGQGTQVTVSS”, the “polyreactivity (PSR sort gate)” value is reported as “low polyreactivity”.

With “QVQLVESGGGLVQAGGSLRLSCAASGSTFPTYAMGWYRQAPGKERELVADITWSGGSTYYADSVKGRFTISRDNAKNTVYLQMNSLKPEDTAVYYCNAAHRKGMYYWGQGTQVTVSS” the “polyreactivity (PSR sort gate)” value was “high polyreactivity”.

In the case of “QVQLVESGGGLVQAGGSLRLSCGASGSIFVNKAMGWYRPAPGKERELVAAISSRSSRTFYADSVKGRFTISRDHAKNTVYLKMNILKPEDTEVYSCAVKKRAPDGDYWGQGTQVTVSS”, the “polyreactivity (PSR sort gate)” value is reported as “high polyreactivity”.

With “QVQLVESGGGLVQAGGSHRLSCAASGYIFQWNAMGWYRQAPGKERELVATISRRGGSTYYADSVKGRFTISRDNAKNTVYLQMNSLKPEDTAVYYCNAVFGSYKDYGYWGQGTQVTVSS” the “polyreactivity (PSR sort gate)” value was “low polyreactivity”.

In the case of “QVQLVESGGGLVQAGGSLRLSCAASGRTFRYYAMGWYRQAPGKERELVAAINWNGGRTYYADSVKGRFTISRDNAKNTVYLQMNSLKPEDTAVYYCAAYHYRSPVTGDYWGQGTQVTVSS”, the “polyreactivity (PSR sort gate)” value is reported as “high polyreactivity”.

With “QDQLVDSGGGLVQAGGSLRLSCAASGNIFTFNAMGWYRQAPGKERELVAAISRGGRTNYADSVKGRFTISRDNAKNTVYLQMNSLKPEDTAVYYCAAEFPQRASGGRYKTEYDYWRQGTQVTVSS” the “polyreactivity (PSR sort gate)” value was “low polyreactivity”.

With “QVQLVESGGGLDQAGGSLRLSCAASGFIYSWYAMGWYRQAPGKERELVAAISSSGVSTYYADSVKGRFTISRDNAKNTVYLQMNSLKPEDTAVYYCNAYGSVWDRGEYDYEYWGQGTQVTVSS” the “polyreactivity (PSR sort gate)” value was “low polyreactivity”.

In the case of “QVQLVESGGAIVQAGGSLRLICAASGSIFYIYAMGWYRQAPGKERELVASITFSGDITYYADSVKGRFTISRDNAKYTVYLQMNSLKPEDTAVYYCAADYHEQSYAVTYDYWGQGTKVTVSS”, the “polyreactivity (PSR sort gate)” value is reported as “low polyreactivity”.

In the case of “QVQLVESGGGLVQAGGSLRLSCAASGSIFGANTMGWYRQAPGKERELVAAISSGGNTYYADSVKGRFTISRDNAKNTVYLQMNSLKPEDTAVYYCAVGAYWYFGFVSYGYDYCGQGTQVTVSS”, the “polyreactivity (PSR sort gate)” value is reported as “low polyreactivity”.

With “QVQLVESGGGLVQAGGSLRLSCAASGLTFAGYAMGWYRQAPGKERELVASITTSGGSTHNADSVKGRFTISRDNEKNTVYVQMNSLKPEDTAVYYCAAECYPGDTELIGAFDYWGQGTQVTVSS” the “polyreactivity (PSR sort gate)” value was “low polyreactivity”.

For “QVQLVESGGGLVQAGGSLRLSCAASGFIFKYNVMGWYRQAPGKERELVAAIRGSGRTYYADSVKGRFTISRDNAKNTVYLQMNSLKPEDTAVYYCGADIQAYASRVYAGFDYWGQGTQVTVSS”, the “polyreactivity (PSR sort gate)” value was “low polyreactivity”.

With “QVQLVESGGGLVQAGGSLRLSCAASGFIFGYYAMGWYRQAPGKERELVAAISGDAGRTYYADSVKGRFTISRDNAKNTVYLQMNSLKPEDTAVYYCAAADTYKMDYWGQGTQVTVSS” the “polyreactivity (PSR sort gate)” value was “low polyreactivity”.

With “QVQLVESGGGLVQAGGSLRLSCAASGRTFLVYAMGWYRQAPGKERELVATIRASTGSTYADSVKGRFTISRDNAKNTVYLQMNSLKPEDTAVYYCAASIRTSPYNYDYWGQGTQVTVSS” the “polyreactivity (PSR sort gate)” value was “high polyreactivity”.

For “QVQLVESGGGLVQAGGSLRLSCAASGSTFGTYAMGWYRQAPGKERELVADITGSGGSTYYADSVKGRFTISRDNAKNTVYLQMNSLKPEDTAVYYCAAEYGLGDDTAYGYWGQGTQVTVSS”, the “polyreactivity (PSR sort gate)” value was “low polyreactivity”.

In the case of “QVKLVESGAGVVQAGGSLRLSCAACGRIFLKYAMGWYRQAPGKERELVAAITSGGGRTSYADSVKGRFTISRDNAKNTVYLQMNSLKPEDTAVYYCNAPAYWRYILRGSAYDYWGQGTQVTVSS”, the “polyreactivity (PSR sort gate)” value is reported as “high polyreactivity”.

For “QVHLQESGGGLEQAGGSPRLSCAASDNIFPDSVMCWYRQAPGKERELVATIGFGATTNYADSVKGRFTISRDNAKKTVFLQMNSLKPEDTAVYYCAADTLNYEYFCYWGQGTQVTVRS”, the “polyreactivity (PSR sort gate)” value was “low polyreactivity”.

With “QVQLVESGGGLVQAGGSLRLSCAASGRIFTRNAMGWYRQAPGKEREFVAAISWSGGSTYYADSVKGRFTISRDNAKNTVDLQMNSLKPEDTAVYYCSAKNSGGYVSWYDYWGQGTQVTVSS” the “polyreactivity (PSR sort gate)” value was “low polyreactivity”.

With “QVQLVESGGGLVQAGGILRLSCAASGSTFTYNVMGWYRQAPGKERYLVAAISWSGGSTFYADSVKGRFTISRDNAKNTVYLQMNRLKPEDTAVYYCNKDHLVYPSEFYYWGQGTQVTVSS” the “polyreactivity (PSR sort gate)” value was “low polyreactivity”.

With “QVQLVESGGGLVQAGGSLPLTCAASGLTFYDYPMGWYRKATVKERELVAAIRRSGTRTYYADSVKGRFTISRDYAKNTVYLQMNSLKPEDTAVYYCNTVRRLKRYSSYGHDYWGQGTQVTVSS” the “polyreactivity (PSR sort gate)” value was “high polyreactivity”.

With “QVQLVESGGGLVQAGGSLRLSCAASGRIFSRYAMGWYRKAPGKERELVAAITQSGTSTYYADSVKGRFTFSRDNAKNTVYLQMNCLKPEDTAVYYCNAYRQYRYDYWGQGTQVTVSS” the “polyreactivity (PSR sort gate)” value was “low polyreactivity”.

In the case of “QVQLVESGGGLVQAAGSLRLSCAASGLTFGGYPMGWYRQAPGKERELVAAISRSCGSTYYADSVKGRFTISRDNAKNTVYLQMNSLKPEDTAVSYCNAGRDTKYDYWGQGTQVTVSS”, the “polyreactivity (PSR sort gate)” value is reported as “low polyreactivity”.

With “QVQLVESGGGLVQAGGSLRLSCAASGFIFYRYAMGWSRQAPGKERELVAAISWGGGSTTYYADSVKGRFTISRDNAKNTVYLQMNSLKPEDTAVYYCAAYIGKGYGSEYYYWGQGTQVTVSS” the “polyreactivity (PSR sort gate)” value was “low polyreactivity”.

For “QVQLVESGGGLVQAGGSLRLSCAASGLTFPSYAMGWYRQAPGKERELVAVISSSGGRTYYADSVKGRFTISRDNAKNTVYLQMNSLIPEDTAVYYCNVGGFLRRRSYDYWGQGTQVTVSS”, the “polyreactivity (PSR sort gate)” value was “high polyreactivity”.

For “QVQLVESGGGLVQAGGSLRLSCAASGRTFYQYAMGWYRPAPGKERELVAAITTSGGSTYYADSVKGRFTNSRDNAKNTVYLQMNSLKPEDTAVYYCAAPYTGYRERGSYKSDYWGQGTQVTESS”, the “polyreactivity (PSR sort gate)” value was “low polyreactivity”.

With “QVQLVESGGGLVQAGGSLRLSCAASGRIFVINTMGWYRQAPGKERELVAAISRGGSTNYADSVKGRFTISRDNAKNTVYLQMNSLKPEDTAVYYCAATGYILFAGGGYDYWGQGTQVTVSS” the “polyreactivity (PSR sort gate)” value was “low polyreactivity”.

For “QVQLVESGGGLVQAGGSLRLICAASGRTYDKYVMGWYRQAPGKERELVSAISFRGVRTYYADSVKGRFTISRDNAKNTFYLQKNSLKPEDTGVYYCAARFTFSAIIGPYGYWGQGTQVTVSS”, the “polyreactivity (PSR sort gate)” value was “high polyreactivity”.

In the case of “QVQLVESGGGLVQAGGSLRLSCAASGSTFQSYAMGWSRPAPGKERELVAAISFSGGSTYYADSVKGRFTISRDHAKNTVYLQMNSLKPEDTAVYYCAADVAYVEYAYWGQGTQVTVSS”, the “polyreactivity (PSR sort gate)” value is reported as “low polyreactivity”.

In the case of “QVQLVESGGGLVQAGGSLRLSCAASGYIFTYYAMGWYRQAPGKERELVAAISGSDGNTYYADSVKGRFTISRDNAKNTVYLQMTSLKPEDTAVYYCAKSGGLTFRSQRYDYWGQGTQVTVSS”, the “polyreactivity (PSR sort gate)” value is reported as “low polyreactivity”.

With “QVQLVESGGGLVQAGGSLRLSCAASGSTFPLYTMGWYRQAPGKERELVAAINYGGTSTYYADSVKGRFTISRDNAKNTVYLQMNSLKPEDTAVYYCKQFVPGRYYWGQGTQVTVSS” the “polyreactivity (PSR sort gate)” value was “high polyreactivity”.

With “QVQLVESGGGLVQAGGSLRLSCAASGIIFGSYAMGWYRQAPGKERELVAGISRRGDSTYYADSVKGRFTISRDNAKNTVYLQMNSLNPEDTAVYYCAADRYLYFYWWPHVGGSPTYGYWGQGTQVTVSS” the “polyreactivity (PSR sort gate)” value was “high polyreactivity”.

With “QVQLVESGGGLVQAGGSHRLSCSASGSIIFYYAMGWDRQAPGKEREFVAAITRSGVRTYYADSVKGRFTISRDNAKNTVYLQMNSLKPEDTAVYYCNADYGFYRPVLMGYWGQGTQVTVSS” the “polyreactivity (PSR sort gate)” value was “low polyreactivity”.

With “QVQLVESGGGLVQAGGSLRLSCAASGSIFYVYAMGWYRQSPGKERELVAAITSSGTTNYADSVKGRFTISRDNAKNTVYLLMNSLKPEDSAVYYCAADPDSGHVRFDYWGQGTQVTVSS” the “polyreactivity (PSR sort gate)” value was “low polyreactivity”.

In the case of “QVQLVESGGGLVQAGGSLRLSCAASGSIFGLNAMGWYRQAPGKERELVAAISVSGTRTYYADSVKGRFTISRDNAKNTGYLQMNSLKPEDTAVYYCAAYSYSSSFGYRYDYWGQGTQVTVSS”, the “polyreactivity (PSR sort gate)” value is reported as “high polyreactivity”.

In the case of “QVQLVESGGGLVQAGGSLRLSCAASGSILYTYAMGWYRQAPGKERELVAAISRGGGSTYYADSVKGRFTISRDNAKNTVYLQMNSLKPEDTAVYYCAARKLTRGTGRDDEYWGQGTQVTVSS”, the “polyreactivity (PSR sort gate)” value is reported as “high polyreactivity”.

With “QVQLVESGGGLVQAGGSVRLSCAASGSIFQYNTMGWYRQAPGKDRELFADINGRGGSTYYADSVKGRFTISRDNAKNTVYLQMNSLKPEDTGVYYCNARVFGGYSKYLFIGRYYWGQGTQVTVSS” the “polyreactivity (PSR sort gate)” value was “low polyreactivity”.

In the case of “QVQLVESGGGLVQAGGSLRLSCAASGITFWNNAKGWYRQAPGKEREFVATISSNGGRTYYADSVKGRFTISRDNAKNTVYLQMNSLKPEDNAVYYCNAARRAYGYNYWGQGTQVTVSS”, the “polyreactivity (PSR sort gate)” value is reported as “low polyreactivity”.

With “QVQLVESAAGLVQAGGSLRLTCDGSGTTFPGYAMGWYRPEPGNERELVAAGGSTYYADSVKGRFTISRDNAKNTVYFQMNCLKPVETAGYYCAASWGSFQKGTYYYWGQGTQVTVSS” the “polyreactivity (PSR sort gate)” value was “low polyreactivity”.

In the case of “QVQLVESGGGLVQAGGSLRLSCAASGRIFAYYAMGWYRQAPGKERELVAAISGGGGSTYYADSVKGRFTISRDNAKNTVYLQMNSLKPEDTAVYFCAAKSSRYDYYYWGHGTQVTVSS”, the “polyreactivity (PSR sort gate)” value is reported as “high polyreactivity”.

With “QVQLVESGGGLVQAGGSLRLSCAASGRIFGLYTMGWYRQAPGKEREFVAGITYSAGRTYYADSVKGRFTISRDNAKNTVYLQMNSLKPEDTAVYYCAATRRWYPTKLYGYWGQVTQVTVSS” the “polyreactivity (PSR sort gate)” value was “high polyreactivity”.

With “QVQLVESGGGLVQAGGSLRLSCAASGSTFPFYAMGWYRQAPGTERELVAAITSGGSTYADSVKGRFTISRDNAKNTVYLQMNSLKPEDTAVYYCAASWPRWWRFGYWGQGTQVTVSS” the “polyreactivity (PSR sort gate)” value was “low polyreactivity”.

In the case of “QVQLVESGGGLVQAGGSLRLTCAASGLTFNHNAMGWCRQAPGKERELVAAISRRGGSTYYADSVKGRFTISRDNAKNTVYLQMNSLKPEDTAVYYCAARRAWSWKIYDYWGQGTQVTVSS”, the “polyreactivity (PSR sort gate)” value is reported as “high polyreactivity”.
